Measurements as given in PMC2192373.

Target: Taxol-stabilized microtubules prepared from pure bovine tubulin (bovine) (UniProt Q6B856)
Test: co-sedimentation

For “GST-DmINCENP (full-length Drosophila inner centromere protein fused to GST) (natural protein)”, which percent of the added protein that cosediments is on record?
The percent of the added protein that cosediments was 64%.
